Our source for the Km of phosphorylation of Ser46 by immunoprecipitated MAST3 (32P incorporation, 10-500 nM substrate, 2 min; Figure 1b), Km of phosphorylation of Ser46 by immunoprecipitated MAST3 (32P incorporation, 10-500 nM substrate, 2 min; Figure 1—figure supplement 1) and Km of phosphorylation of Ser88 by PKA (32P incorporation, 10-500 nM substrate; Figure 1d) values is PMC5515580.

One assay has as its target MAST3-HA (human) (UniProt O60307).
The target of the next assay is Recombinant PKA (UniProt P17612).

6xHis-ARPP-16, sequence (P56211 17-112): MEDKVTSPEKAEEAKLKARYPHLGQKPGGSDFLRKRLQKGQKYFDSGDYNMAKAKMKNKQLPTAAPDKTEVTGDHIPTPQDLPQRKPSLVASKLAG
MAST3-HA (human), sequence (O60307 313-1021): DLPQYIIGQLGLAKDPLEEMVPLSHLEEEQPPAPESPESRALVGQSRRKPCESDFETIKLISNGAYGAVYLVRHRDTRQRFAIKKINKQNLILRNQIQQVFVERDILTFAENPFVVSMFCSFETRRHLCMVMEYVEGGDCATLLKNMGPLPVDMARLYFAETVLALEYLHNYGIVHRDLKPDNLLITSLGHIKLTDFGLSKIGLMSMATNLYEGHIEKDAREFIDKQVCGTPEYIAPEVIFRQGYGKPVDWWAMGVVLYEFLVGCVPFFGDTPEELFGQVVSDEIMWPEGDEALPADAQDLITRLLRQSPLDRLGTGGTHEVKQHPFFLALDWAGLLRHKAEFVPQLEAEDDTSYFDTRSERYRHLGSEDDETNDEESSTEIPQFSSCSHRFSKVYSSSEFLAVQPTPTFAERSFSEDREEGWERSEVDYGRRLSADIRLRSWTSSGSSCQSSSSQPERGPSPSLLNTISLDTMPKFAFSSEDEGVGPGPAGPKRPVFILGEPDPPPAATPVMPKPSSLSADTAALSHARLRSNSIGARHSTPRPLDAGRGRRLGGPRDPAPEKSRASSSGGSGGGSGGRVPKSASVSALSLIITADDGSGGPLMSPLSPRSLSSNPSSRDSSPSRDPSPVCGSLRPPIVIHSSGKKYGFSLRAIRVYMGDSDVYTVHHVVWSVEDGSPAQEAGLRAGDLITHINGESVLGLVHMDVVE
P-S46-ARPP-16, sequence (P56211 17-112): as the sequence (P56211 17-112) above

As to “6xHis-ARPP-16 (from UniProt P56211-2 1-96) (natural protein)”, in the assay with MAST3-HA (human), the Km of phosphorylation of Ser46 by immunoprecipitated MAST3 (32P incorporation, 10-500 nM substrate, 2 min; Figure 1b) was determined as 0.09 µM and the Km of phosphorylation of Ser46 by immunoprecipitated MAST3 (32P incorporation, 10-500 nM substrate, 2 min; Figure 1—figure supplement 1) came to 0.092 µM. In addition, in the assay with Recombinant PKA, the Km of phosphorylation of Ser88 by PKA (32P incorporation, 10-500 nM substrate; Figure 1d) turned out to be 1.69 µM.

Consider “P-S46-ARPP-16 (from UniProt P56211-2 1-96) (natural protein)”, for which the Km of phosphorylation of Ser88 by PKA (32P incorporation, 10-500 nM substrate; Figure 1d) with Recombinant PKA amounted to 0.87 µM.
